The target in assay [1] is GLP-1 receptor. The assay can be described thus: competition with I-125 exendin-4 (9-39) on RIN-m5F cells expressing GLP-1R, gamma counting.
Assay [2] concerns the target GLP-1 receptor. In words: comparison of IC50 values, competition with I-125 exendin-4 (9-39) on RIN-m5F cells.

In turn, exendin-4 (peptide) had an IC50 with GLP-1 receptor [1] of 230 pM.

Turning to C40-PEG5K-Ex4 (linear) (peptide), in the assay with GLP-1 receptor [2], the fold better activity than Comparative example 1a (Lys^12-PEG5K-Ex4) stood at 6 fold, the fold better activity than Comparative example 1b (Lys^27-PEG5K-Ex4) came to 2 fold and the fold better activity than Comparative example 2 (Nter-PEG5K-Ex4) was determined as 120 fold. This substance also gave an IC50 with GLP-1 receptor [1] of 1040 pM.

(Values after US20170189545A1.)
